Sequences and labels used below:
B1: mCCL25 (ligand)
chain: QGAFEDCCLGYQHRIKWNVLRHARNYHQQEVSGSCNLRAVRFYFRQKVVCGNPEDMNVKRAMRILTARKRLVHWKSASDSQTERKKSNHMKSKVENPNSTSVRSATLGHPRMVMMPRKTNN
B2: mCXCL14 (ligand)
chain: SKCKCSRKGPKIRYSDVKKLEMKPKYPHCEEKMVIVTTKSMSRYRGQEHCLHPKLQSTKRFIKWYNAWNEKRRVYEE
B3: hCXCL14 (ligand)
chemokine: SKCKCSRKGPKIRYSDVKKLEMKPKYPHCEEKMVIITTKSVSRYRGQEHCLHPKLQSTKRFIKWYNAWNEKRRVYEE
B4: mCCL27 (ligand)
chain: LPLPSSTSCCTQLYRQPLPSRLLRRIVHMELQEADGDCHLQAVVLHLARRSVCVHPQNRSLARWLERQGKRLQGTVPSLNLVLQKKMYSHPQQQN
B5: hCXCL13 (ligand)
chemokine: VLEVYYTSLRCRCVQESSVFIPRRFIDRIQILPRGNGCPRKEIIVWKKNKSIVCVDPQAEWIQRMMEVLRKRSSSTLPVPVFKRKIP
B6: hCCL28 (ligand)
chemokine: SEAILPIASSCCTEVSHHISRRLLERVNMCRIQRADGDCDLAAVILHVKRRRICVSPHNHTVKQWMKVQAAKKNGKGNVCHRKKHHGKRNSNRAHQGKHETYGHKTPY

This is an account of results in US20090104178A1 (published 2009).

For this assay, the target named is Purified recombinant EV CrmD protein (ectromelia virus).
With B1, the Kd amounted to 3.2 nM.
For B2, the Kd came to 3.2 nM.
For B3, the dissociation constant Kd came out at 7.1 nM.
Turning to B4, the Kd is 8.5 nM.
On to B5, for which the Kd is 7.4 nM.
For the molecule B6, the dissociation constant Kd was found to be 2.8 nM.

For orientation: Kd means the constant that tells how readily two partners part at equilibrium.
